Data from patent US20050074822A1.

Biological target: MHC class I (human)
Test: cell-based or functional assay

Work on “monoclonal antibody to MHC class I (w6/32 without sodium azide, Cat. No. 16-9983, e-Bioscience, Inc.)” yielded an IFN-γ production (ELISPOT, PBMC stimulated with CMV pp65 peptide …), percent inhibited, 2 µl W6/32 of 27 to 42% and an IFN-γ production (ELISPOT, PBMC stimulated with CMV pp65 peptide …), percent inhibited, 10 µl W6/32 of 58 to 71%.
